Test system: HEK293FT cells transfected with TF library
Assay: Screening of TF condensates based on fluorescent puncta
Format: cell-based
Conditions: Figure 1B numerical data; TF library screen, one value per transcriptional factor
Method in brief: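 Condensate formation is scored as Alexa 488-labelled puncta after Flag- or GAL4-tag immunostaining of fixed HEK293FT cells expressing individual TFs, with a 12 h glucose-free or glucose-containing culture preceding fixation.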

Molecule	Z score of condensed fraction
ING1L (protein, UniProt Q9H160 1-280, looked up) Inhibitor of growth protein 2: MLGQQQQQLYSSAALLTGERSRLLTCYVQDYLECVESLPHDMQRNVSVLRELDNKYQETLKEIDDVYEKYKKEDDLNQKKRLQQLLQRALINSQELGDEKIQIVTQMLELVENRARQMELHSQCFQDPAESERASDKAKMDSSQPERSSRRPRRQRTSESRDLCHMANGIEDCDDQPPKEKKSKSAKKKKRSKAKQEREASPVEFAIDPNEPTYCLCNQVSYGEMIGCDNEQCPIEWFHFSCVSLTYKPKGKWYCPKCRGDNEKTMDKSTEKTKKDRRSR	-0.141
IKZF2 (protein, UniProt Q9UKS7 1-526, looked up) Zinc finger protein Helios: METEAIDGYITCDNELSPEREHSNMAIDLTSSTPNGQHASPSHMTSTNSVKLEMQSDEECDRKPLSREDEIRGHDEGSSLEEPLIESSEVADNRKVQELQGEGGIRLPNGKLKCDVCGMVCIGPNVLMVHKRSHTGERPFHCNQCGASFTQKGNLLRHIKLHSGEKPFKCPFCSYACRRRDALTGHLRTHSVGKPHKCNYCGRSYKQRSSLEEHKERCHNYLQNVSMEAAGQVMSHHVPPMEDCKEQEPIMDNNISLVPFERPAVIEKLTGNMGKRKSSTPQKFVGEKLMRFSYPDIHFDMNLTYEKEAELMQSHMMDQAINNAITYLGAEALHPLMQHPPSTIAEVAPVISSAYSQVYHPNRIERPISRETADSHENNMDGPISLIRPKSRPQEREASPSNSCLDSTDSESSHDDHQSYQGHPALNPKRKQSPAYMKEDVKALDTTKAPKGSLKDIYKVFNGEGEQIRAFKCEHCRVLFLDHVMYTIHMGCHGYRDPLECNICGYRSQDRYEFSSHIVRGEHTFH	1.456
ID4 (protein, UniProt P47928 1-161, looked up) DNA-binding protein inhibitor …: MKAVSPVRPSGRKAPSGCGGGELALRCLAEHGHSLGGSAAAAAAAAAARCKAAEAAADEPALCLQCDMNDCYSRLRRLVPTIPPNKKVSKVEILQHVIDYILDLQLALETHPALLRQPPPPAPPHHPAGTCPAAPPRTPLTALNTDPAGAVNKQGDSILCR	-0.9102
IRF2 (protein, UniProt P14316 1-349, looked up) Interferon regulatory factor 2: MPVERMRMRPWLEEQINSNTIPGLKWLNKEKKIFQIPWMHAARHGWDVEKDAPLFRNWAIHTGKHQPGVDKPDPKTWKANFRCAMNSLPDIEEVKDKSIKKGNNAFRVYRMLPLSERPSKKGKKPKTEKEDKVKHIKQEPVESSLGLSNGVSDLSPEYAVLTSTIKNEVDSTVNIIVVGQSHLDSNIENQEIVTNPPDICQVVEVTTESDEQPVSMSELYPLQISPVSSYAESETTDSVPSDEESAEGRPHWRKRNIEGKQYLSNMGTRGSYLLPGMASFVTSNKPDLQVTIKEESNPVPYNSSWPPFQDLPLSSSMTPASSSSRPDRETRASVIKKTSDITQARVKSC	-0.3538
IRF1 (protein, UniProt P10914 1-325, looked up) Interferon regulatory factor 1: MPITRMRMRPWLEMQINSNQIPGLIWINKEEMIFQIPWKHAAKHGWDINKDACLFRSWAIHTGRYKAGEKEPDPKTWKANFRCAMNSLPDIEEVKDQSRNKGSSAVRVYRMLPPLTKNQRKERKSKSSRDAKSKAKRKSCGDSSPDTFSDGLSSSTLPDDHSSYTVPGYMQDLEVEQALTPALSPCAVSSTLPDWHIPVEVVPDSTSDLYNFQVSPMPSTSEATTDEDEEGKLPEDIMKLLEQSEWQPTNVDGKGYLLNEPGVQPTSVYGDFSCKEEPEIDSPGGDIGLSLQRVFTDLKNMDATWLDSLLTPVRLPSIQAIPCAP	-0.5727
HSFX1 (protein, UniProt Q9UBD0 1-423, looked up) Heat shock transcription …: MEDKRSLSMARCEERNSRGQDHGLERVPFPPQLQSETYLHPADPSPAWDDPGSTGSPNLRLLTEEIAFQPLAEEASFRRPHPDGDVPPQGEDNLLSLPFPQKLWRLVSSNQFSSIWWDDSGACRVINQKLFEKEILKRDVAHKVFATTSIKSFFRQLNLYGFRKRRQCTFRTFTRIFSAKRLVSILNKLEFYCHPYFQRDSPHLLVRMKRRVGVKSAPRHQEEDKPEAAGSCLAPADTEQQDHTSPNENDQVTPQHREPAGPNTQIRSGSAPPATPVMVPDSAVASDNSPVTQPAGEWSEGSQAHVTPVAAVPGPAALPFLYVPGSPTQMNSYGPVVALPTASRSTLAMDTTGLPAPGMLPFCHLWVPVTLVAAGAAQPAASMVMFPHLPALHHHCPHSHRTSQYMPASDGPQAYPDYADQST	-0.6149
IKZF1 (protein, UniProt Q13422 1-519, looked up) DNA-binding protein Ikaros: MDADEGQDMSQVSGKESPPVSDTPDEGDEPMPIPEDLSTTSGGQQSSKSDRVVASNVKVETQSDEENGRACEMNGEECAEDLRMLDASGEKMNGSHRDQGSSALSGVGGIRLPNGKLKCDICGIICIGPNVLMVHKRSHTGERPFQCNQCGASFTQKGNLLRHIKLHSGEKPFKCHLCNYACRRRDALTGHLRTHSVGKPHKCGYCGRSYKQRSSLEEHKERCHNYLESMGLPGTLYPVIKEETNHSEMAEDLCKIGSERSLVLDRLASNVAKRKSSMPQKFLGDKGLSDTPYDSSASYEKENEMMKSHVMDQAINNAINYLGAESLRPLVQTPPGGSEVVPVISPMYQLHKPLAEGTPRSNHSAQDSAVENLLLLSKAKLVPSEREASPSNSCQDSTDTESNNEEQRSGLIYLTNHIAPHARNGLSLKEEHRAYDLLRAASENSQDALRVVSTSGEQMKVYKCEHCRVLFLDHVMYTIHMGCHGFRDPFECNMCGYHSQDRYEFSSHITRGEHRFHMS	0.01528
IFI16 (protein, UniProt Q16666 1-785, looked up) Gamma-interferon-inducible …: MGKKYKNIVLLKGLEVINDYHFRMVKSLLSNDLKLNLKMREEYDKIQIADLMEEKFRGDAGLGKLIKIFEDIPTLEDLAETLKKEKLKVKGPALSRKRKKEVDATSPAPSTSSTVKTEGAEATPGAQKRKKSTKEKAGPKGSKVSEEQTQPPSPAGAGMSTAMGRSPSPKTSLSAPPNSSSTENPKTVAKCQVTPRRNVLQKRPVIVKVLSTTKPFEYETPEMEKKIMFHATVATQTQFFHVKVLNTSLKEKFNGKKIIIISDYLEYDSLLEVNEESTVSEAGPNQTFEVPNKIINRAKETLKIDILHKQASGNIVYGVFMLHKKTVNQKTTIYEIQDDRGKMDVVGTGQCHNIPCEEGDKLQLFCFRLRKKNQMSKLISEMHSFIQIKKKTNPRNNDPKSMKLPQEQRQLPYPSEASTTFPESHLRTPQMPPTTPSSSFFTKKSEDTISKMNDFMRMQILKEGSHFPGPFMTSIGPAESHPHTPQMPPSTPSSSFLTTKSEDTISKMNDFMRMQILKEGSHFPGPFMTSIGPAESHPHTPQMPPSTPSSSFLTTLKPRLKTEPEEVSIEDSAQSDLKEVMVLNATESFVYEPKEQKKMFHATVATENEVFRVKVFNIDLKEKFTPKKIIAIANYVCRNGFLEVYPFTLVADVNADRNMEIPKGLIRSASVTPKINQLCSQTKGSFVNGVFEVHKKNVRGEFTYYEIQDNTGKMEVVVHGRLTTINCEEGDKLKLTCFELAPKSGNTGELRSVIHSHIKVIKTRKNKKDILNPDSSMETSPDFFF	-0.2342
HSFY1 (protein, UniProt Q96LI6 1-401, looked up) Heat shock transcription …: MAHVSSETQDVSPKDELTASEASTRSPLCEHTFPGDSDLRSMIEEHAFQVLSQGSLLESPSYTVCVSEPDKDDDFLSLNFPRKLWKIVESDQFKSISWDENGTCIVINEELFKKEILETKAPYRIFQTDAIKSFVRQLNLYGFSKIQQNFQRSAFLATFLSEEKESSVLSKLKFYYNPNFKRGYPQLLVRVKRRIGVKNASPISTLFNEDFNKKHFRAGANMENHNSALAAEASEESLFSASKNLNMPLTRESSVRQIIANSSVPIRSGFPPPSPSTSVGPSEQIATDQHAILNQLTTIHMHSHSTYMQARGHIVNFITTTTSQYHIISPLQNGYFGLTVEPSAVPTRYPLVSVNEAPYRNMLPAGNPWLQMPTIADRSAAPHSRLALQPSPLDKYHPNYN	0.153
HSBP1 (protein, UniProt O75506 1-76, looked up) Heat shock factor-binding …: MAETDPKTVQDLTSVVQTLLQQMQDKFQTMSDQIIGRIDDMSSRIDDLEKNIADLMTQAGVEELESENKIPATQKS	-0.06777
IRF3 (protein, UniProt Q14653 1-427, looked up) Interferon regulatory factor 3: MGTPKPRILPWLVSQLDLGQLEGVAWVNKSRTRFRIPWKHGLRQDAQQEDFGIFQAWAEATGAYVPGRDKPDLPTWKRNFRSALNRKEGLRLAEDRSKDPHDPHKIYEFVNSGVGDFSQPDTSPDTNGGGSTSDTQEDILDELLGNMVLAPLPDPGPPSLAVAPEPCPQPLRSPSLDNPTPFPNLGPSENPLKRLLVPGEEWEFEVTAFYRGRQVFQQTISCPEGLRLVGSEVGDRTLPGWPVTLPDPGMSLTDRGVMSYVRHVLSCLGGGLALWRAGQWLWAQRLGHCHTYWAVSEELLPNSGHGPDGEVPKDKEGGVFDLGPFIVDLITFTEGSGRSPRYALWFCVGESWPQDQPWTKRLVMVKVVPTCLRALVEMARVGGASSLENTVDLHISNSHPLSLTSDQYKAYLQDLVEGMDFQGPGES	1.843
HSF1 (protein, UniProt Q00613 1-529, looked up) Heat shock factor protein 1: MDLPVGPGAAGPSNVPAFLTKLWTLVSDPDTDALICWSPSGNSFHVFDQGQFAKEVLPKYFKHNNMASFVRQLNMYGFRKVVHIEQGGLVKPERDDTEFQHPCFLRGQEQLLENIKRKVTSVSTLKSEDIKIRQDSVTKLLTDVQLMKGKQECMDSKLLAMKHENEALWREVASLRQKHAQQQKVVNKLIQFLISLVQSNRILGVKRKIPLMLNDSGSAHSMPKYSRQFSLEHVHGSGPYSAPSPAYSSSSLYAPDAVASSGPIISDITELAPASPMASPGGSIDERPLSSSPLVRVKEEPPSPPQSPRVEEASPGRPSSVDTLLSPTALIDSILRESEPAPASVTALTDARGHTDTEGRPPSPPPTSTPEKCLSVACLDKNELSDHLDAMDSNLDNLQTMLSSHGFSVDTSALLDLFSPSVTVPDMSLPDLDSSLASIQELLSPQEPPRPPEAENSSPDSGKQLVHYTAQPLFLLDPGSVDTGSNDLPVLFELGEGSYFSEGDGFAEDPTISLLTGSEPPKAKDPTVS	-1.041
IDB3 (protein, UniProt Q02535 1-119, looked up) DNA-binding protein inhibitor …: MKALSPVRGCYEAVCCLSERSLAIARGRGKGPAAEEPLSLLDDMNHCYSRLRELVPGVPRGTQLSQVEILQRVIDYILDLQVVLAEPAPGPPDGPHLPIQTAELTPELVISNDKRSFCH	-0.588
ARL2BP (protein, UniProt Q9Y2Y0 1-163, looked up) ADP-ribosylation factor-like …: MDALEGESFALSFSSASDAEFDAVVGYLEDIIMDDEFQLLQRNFMDKYYLEFEDTEENKLIYTPIFNEYISLVEKYIEEQLLQRIPEFNMAAFTTTLQHHKDEVAGDIFDMLLTFTDFLAFKEMFLDYRAEKEGRGLDLSSGLVVTSLCKSSSLPASQNNLRH	1.651
